Test results from US11278600B2, “Human alpha-galactosidase variants” (Codexis, Inc., priority 2014, dated 2022).

How the values were obtained:
Assay type in all cases: biochemical
[1] = HTP-analysis of yeast culture supernatants, no challenge (MUGal hydrolysis); conditions: activity of the variant/activity of WT GLA (SEQ ID NO: 5), yeast supernatant
Method in brief: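 GLA variants expressed in yeast INVSc1, secreted into SD-Ura broth over 66-84 h at 30° C; clarified supernatants tested without challenge. Supernatant mixed with McIlvaine buffer pH 4.8 and 2 mM MUGal (citrate/KCl, pH 4.6), 37° C for 30-180 min, carbonate-quenched, fluorescence Ex 355/Em 448 nm.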

[2] = HTP-analysis of supernatants pretreated with acid (MUGal hydrolysis); conditions: challenge at pH 4.2; activity of the variant/activity of WT GLA (SEQ ID NO: 5); yeast supernatant
Method in brief: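 Yeast INVSc1 supernatant, GLA variants; acid challenge: McIlvaine pH 3.3-4.3, 37° C., 1-3 h. Assay: MUGal in McIlvaine pH 4.8 plus citrate pH 4.3, 37° C., 30-180 min, Na2CO3 stop, Ex 355/Em 448 nm.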

[3] = HTP-analysis of supernatants pretreated with base (MUGal hydrolysis); conditions: challenge at pH 7.1; activity of the variant/activity of WT GLA (SEQ ID NO: 5); yeast supernatant
Method in brief: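 Supernatants from INVSc1 yeast expressing GLA variants (SD-Ura, 66-84 h, 30° C) were mixed with McIlvaine buffer pH 7.0-8.2 or 200 mM sodium bicarbonate pH 9.1-9.7 and held 1-18 h at 37° C. Residual activity was then measured on MUGal at pH 4.8/4.3, 37° C, 30-180 min, by fluorescence (Ex 355/Em 448 nm).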

B1: 67 (protein)
chain: LDNGLARTPTMGWLHWERFMCNLDCQEEPDSCISEKLFMEMAELMVSEGWKDAGYEYLCIDDCWMAPQRDSEGRLQADPQRFPHGIRQLANYVHSKGLKLGIYADVGNKTCAGFPGSFGYYDIDAQTFADWGVDLLKFDGCYCDSLENLADGYKEMSLALNRTGRSIVYSCEWPLYMWPFQKPNYTEIRQYCNHWRNFADIDDSWKSIKSILDWTSFNQERIVDVAGPGGWNDPDMLVIGNFGLSWNQQVTQMALWAIMAAPLFMSNDLRHISPQAKALLQDKDVIAINQDPLGKQGYQLRQGDNFEVWERPLSGLAWAVAMINRQEIGGPRSYTIAVASLGKGVACNPACFITQLLPVKRKLGFYEWTSRLRSHINPTGTVLLQLENTMQMSKDLLL
modifications: Synthetic Polypeptide sequence of Variant No. 67 of mature Human GLA
Relative Activity of GLA Variants After No Challenge (NC) [1]: ++ (++ = >1.5 to 2.5 relative activity over WT GLA (SEQ ID NO: 5)) | Relative Activity of GLA Variants After Challenge at pH 4.2 [2]: + (+ = 0.5 to 1.5 relative activity over WT GLA (SEQ ID NO: 5)) | Relative Activity of GLA Variants After Challenge at pH 7.1 [3]: ++ (++ = >1.5 to 2.5 relative activity over WT GLA (SEQ ID NO: 5))

B2: 72 (protein)
chain: LDNGLARTPTMGWLHWERFMCNLDCQEEPDSCISEKLFMEMAELMVSEGWKDAGYEYLCIDDCWMAPQRDSEGRLQADPQRFPHGIRQLANYVHSKGLKLGIYADVGNKTCAGFPGSFGYYDIDAQTFADWGVDLLKFDGCYCDSLENLADGYKHMSLALNRTGRSVVYSCEWPLYMWPFQKPNYTEIRQYCNHWRNFADIDDSWKSIKSILDWTSFNQERIVDVAGPGGWNDPDMLVIGNFGLSWNQQVTQMALWAIMAAPLFMSNDLRHISPQAKALLQDKDVIAINQDPLGKQGYQLRQGDNFEVWERPLSGLAWAVAMINRQEIGGPRSYTIAVASLGKGVACNPACFITQLLPVKRKLGFYEWTSRLRSHINPTGTVLLQLENTMQMSKDLLL
modifications: Synthetic Polypeptide sequence of Variant No. 72 of mature Human GLA
Relative Activity of GLA Variants After No Challenge (NC) [1]: + (+ = 0.5 to 1.5 relative activity over WT GLA (SEQ ID NO: 5)) | Relative Activity of GLA Variants After Challenge at pH 4.2 [2]: + (+ = 0.5 to 1.5 relative activity over WT GLA (SEQ ID NO: 5)) | Relative Activity of GLA Variants After Challenge at pH 7.1 [3]: + (+ = 0.5 to 1.5 relative activity over WT GLA (SEQ ID NO: 5))

B3: 73 (protein)
chain: LDNGLARTPTMGWLHWERFMCNLDCQEEPDSCISEKLFMEMAELMVSEGWKDAGYEYLCIDDCWMAPQRDSEGRLQADPQRFPHGIRQLANYVHSKGLKLGIYADVGNKTCAGFPGSFGYYDIDAQTFADWGVDLLKFDGCYCDSLENLADGYKHMSLALNRTGRSIVYSCEWPLYMWPFQKPNYTEIRQYCNHWRNFADIDDSWASIKSILDWTSFNQERIVDVAGPGGWNDPDMLVIGNFGLSWNQQVTQMALWAIMAAPLFMSNDLRHISPQAKALLQDKDVIAINQDPLGKQGYQLRQGDNFEVWERPLSGLAWAVAMINRQEIGGPRSYTIAVASLGKGVACNPACFITQLLPVKRKLGFYEWTSRLRSHINPTGTVLLQLENTMQMSLKDLL
modifications: Synthetic Polypeptide sequence of Variant No. 73
Relative Activity of GLA Variants After No Challenge (NC) [1]: + (+ = 0.5 to 1.5 relative activity over WT GLA (SEQ ID NO: 5)) | Relative Activity of GLA Variants After Challenge at pH 4.2 [2]: +++ (+++ = >2.5 relative activity over WT GLA (SEQ ID NO: 5)) | Relative Activity of GLA Variants After Challenge at pH 7.1 [3]: ++ (++ = >1.5 to 2.5 relative activity over WT GLA (SEQ ID NO: 5))

B4: 71 (protein)
chain: LDNGLARTPTMGWLHWERFMCNLDCQEEPDSCISEKLFMEMAELMVSEGWKDAGYEYLCIDDCWMAPQRDSEGRLQADPQRFPHGIRQLANYVHSKGLKLGIYADVGNKTCAGFPGSFGYYDTDAQTFADWGVDLLKFDGCYCDSLENLADGYKHMSLALNRTGRSIVYSCEWPLYMWPFQKPNYTEIRQYCNHWRNFADIDDSWKSIKSILDWTSFNQERIVDVAGPGGWNDPDMLVIGNFGLSWNQQVTQMALWAIMAAPLFMSNDLRHISPQAKALLQDKDVIAINQDPLGKQGYQLRQGDNFEVWERPLSGLAWAVAMINRQEIGGPRSYTIAVASLGKGVACNPACFITQLLPVKRKLGFYEWNSRLRSHINPTGTVLLQLENTMQMSKDLLL
modifications: Synthetic Polypeptide sequence of Variant No. 71 of mature Human GLA
Relative Activity of GLA Variants After No Challenge (NC) [1]: ++ (++ = >1.5 to 2.5 relative activity over WT GLA (SEQ ID NO: 5)) | Relative Activity of GLA Variants After Challenge at pH 4.2 [2]: + (+ = 0.5 to 1.5 relative activity over WT GLA (SEQ ID NO: 5)) | Relative Activity of GLA Variants After Challenge at pH 7.1 [3]: ++ (++ = >1.5 to 2.5 relative activity over WT GLA (SEQ ID NO: 5))

B5: 69 (protein)
chain: LDNGLARTPTMGWLHWERFMCNLDCQEEPDSCISEKLFMEMAELMVSEGWKDAGYEYLCIDDCWMAPQRDSEGRLQADPQRFPHGIRQLANYVHSKGLKLGLYADVGNKTCAGFPGSFGYYDIDAQTFADWGVDLLKFDGCYCDSLENLADGYKHMSLALNRTGRSIVYSCEWPLYMWPFQKPNYTEIRQYCNHWRNFADIDDSWKSIKSILDWTSFNQERIVDVAGPGGWNDPDMLVIGNFGLSWNQQVTQMALWAIMAAPLFMSNDLRHISPQAKALLQDKDVIAINQDPLGKQGYQLRQGDNFEVWERPLSGLAWAVAMINRQEIGGPRSYTIAVASLGKGVACNPACFITQLLPVKRKLGFYEWTSRLRSHINPTGTVLLQLENTMQMSKDLLL
modifications: Synthetic Polypeptide sequence of Variant No. 69 of mature Human GLA
Relative Activity of GLA Variants After No Challenge (NC) [1]: + (+ = 0.5 to 1.5 relative activity over WT GLA (SEQ ID NO: 5)) | Relative Activity of GLA Variants After Challenge at pH 4.2 [2]: + (+ = 0.5 to 1.5 relative activity over WT GLA (SEQ ID NO: 5)) | Relative Activity of GLA Variants After Challenge at pH 7.1 [3]: + (+ = 0.5 to 1.5 relative activity over WT GLA (SEQ ID NO: 5))

B6: 74 (protein)
chain: LDNGLARTPTMGWLHWERFMCNLDCQEEPDSCISEKLFMEMAELMVSEGWKDAGYEYLCIDDCWMAPQRDSEGRLQADPQRFPHGIRQLANYVHSKGLKLGIYADVGNKTCAGFPGSFGYYDIDAQTFADWGVDLLKFDGCYCDSLENLADGYKHMSLALNRTGRSIVYSCEWPLYMWPFQKPNYTEIRQYCNHWRNFADIDDSWMSIKSILDWTSFNQERIVDVAGPGGWNDPDMLVIGNFGLSWNQQVTQMALWAIMAAPLFMSNDLRHISPQAKALLQDKDVIAINQDPLGKQGYQLRQGDNFEVWERPLSGLAWAVAMINRQEIGGPRSYTIAVASLGKGVACNPACFITQLLPVKRKLGFYEWTSRLRSHINPTGTVLLQLENTMQMSKDLLL
modifications: Synthetic Polypeptide sequence of Variant No. 74 of mature Human GLA
Relative Activity of GLA Variants After No Challenge (NC) [1]: + (+ = 0.5 to 1.5 relative activity over WT GLA (SEQ ID NO: 5)) | Relative Activity of GLA Variants After Challenge at pH 4.2 [2]: +++ (+++ = >2.5 relative activity over WT GLA (SEQ ID NO: 5)) | Relative Activity of GLA Variants After Challenge at pH 7.1 [3]: ++ (++ = >1.5 to 2.5 relative activity over WT GLA (SEQ ID NO: 5))

B7: 70 (protein)
chain: LDNGLARTPTMGWLHWERFMCNLDCQEEPDSCISEKLFMEMAELMVSEGWKDAGYEYLCIDDCWMAPQRDSEGRLQADPQRFPHGIRQLANYVHSKGLKLGLYADVGNKTCAGFPGSFGYYDIDAQTFADWGVDLLKFDGCYCDSLENLADGYKHMSLALNRTGRSIVYSCEWPLYMWPFQKPNYTEIRQYCNHWRNFADIDDSWKSIKSILDWTSFNQERIVDVAGPGGWNDPDMLVIGNFGLSWNQQVTQMALWAIMAAPLFMSNDLRHISPQAKALLQDKDVIAINQDPLGKQGYQLRQGDNFEVWERPLSGLAWAVAMINRQEIGGPRSYTIAVASLGKGVACNPACFITQLLPVKRKLGFYEWTSRLRSHINPTGTVLLQLENTMQMSVDLLL
modifications: Synthetic Polypeptide sequence of Variant No. 70 of mature Human GLA
Relative Activity of GLA Variants After No Challenge (NC) [1]: + (+ = 0.5 to 1.5 relative activity over WT GLA (SEQ ID NO: 5)) | Relative Activity of GLA Variants After Challenge at pH 4.2 [2]: + (+ = 0.5 to 1.5 relative activity over WT GLA (SEQ ID NO: 5)) | Relative Activity of GLA Variants After Challenge at pH 7.1 [3]: + (+ = 0.5 to 1.5 relative activity over WT GLA (SEQ ID NO: 5))

B8: 68 (protein)
chain: LDNGLARTPTMGWLHWERFMCNLDCQEEPDSCISEKLFMEMAELMVSEGWKDAGYEYLCIDDCWMAPQRDSEGRLQADPQRFPSGIRQLANYVHSKGLKLGIYADVGNKTCAGFPGSFGYYDIDAQTFADWGVDLLKFDGCYCDSLENLADGYKHMSLALNRTGRSIVYSCEWPLYMWPFQKPNYTEIRQYCNHWRNFADIDDSWKSIKSILDWTSFNQERIVDVAGPGGWNDPDMLVIGNFGLSWNQQVTQMALWAIMAAPLFMSNDLRHISPQAKALLQDKDVIAINQDPLGKQGYQLRQGDNFEVWERPLSGLAWAVAMINRQEIGGPRSYTIAVASLGKGVACNPACFITQLLPVKRKLGFYEWTSRLRSHINPTGTVLLQLENTMQMSKDLLL
modifications: Synthetic Polypeptide sequence of Variant No. 68 of mature Human GLA
Relative Activity of GLA Variants After No Challenge (NC) [1]: + (+ = 0.5 to 1.5 relative activity over WT GLA (SEQ ID NO: 5)) | Relative Activity of GLA Variants After Challenge at pH 4.2 [2]: ++ (++ = >1.5 to 2.5 relative activity over WT GLA (SEQ ID NO: 5)) | Relative Activity of GLA Variants After Challenge at pH 7.1 [3]: + (+ = 0.5 to 1.5 relative activity over WT GLA (SEQ ID NO: 5))
